In patent publication US20050271676A1, “Inducing cellular immune responses to human immunodeficiency virus-1 using peptide and nucleic acid compositions” (Epimmune Inc., priority 1993, published 2005):
No end group written: not given here.

Tests used:
HLA-DRB1*1101 (DR5w11) = molecular target: T1, HLA-DRB1*1101 (DR5w11) (Homo sapiens, UniProt P01903+P01911, A100R/A169T/A87E/I96F/K41T/L162R/M171V/P40S/Q125H/Q178H/Q39Y/Q99D/R42S/S66Y/T262R/V115G/W38E); experiment: biochemical; type: binding
T1 construct: endogenous in cells
T1 sequence (P01903 26-254, other chains not shown): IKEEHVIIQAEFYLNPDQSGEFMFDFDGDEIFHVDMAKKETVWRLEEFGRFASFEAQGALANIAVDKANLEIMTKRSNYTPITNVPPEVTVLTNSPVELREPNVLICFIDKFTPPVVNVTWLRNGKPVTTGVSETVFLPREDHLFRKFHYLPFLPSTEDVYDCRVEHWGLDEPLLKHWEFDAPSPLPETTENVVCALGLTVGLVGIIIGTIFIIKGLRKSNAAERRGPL

HLA-DRB1*0401 (DR4w4) = molecular target: T2, HLA-DRB1*0401 (DR4w4) (Homo sapiens, UniProt P01903+P01911, A100K/A169T/F76Y/I96L/K127E/L162R/M171V/N62H/P40V/Q125Y/R42H/S133A/S149N/S66Y/V115G/V209L/W38E); experiment: purified HLA class II binding assay, DRB1*0401 (DR4w4); conditions: for DR4w4 binding: HIV DR super motif peptides, unit not given
T2 construct: endogenous in cells; host or cells: Preiss
T2 sequence (P01903 26-254 partner, other chains not shown): as the sequence (P01903 26-254, other chains not shown) above

HLA-DRB5*0101 (DR2w2β2) = molecular target: T3, HLA-DRB5*0101 (DR2w2β2) (Homo sapiens, UniProt P01903+Q30154); experiment: biochemical; type: binding
T3 construct: expressed in transfected cells

HLA-DRB1*0301 (DR3) = molecular target: T4, HLA-DRB1*0301 (DR3) (Homo sapiens, UniProt P01903+P01911, A100K/A102G/A103R/A169T/F55Y/I96L/K41T/L162R/M171V/P40S/Q125H/Q178H/Q39Y/R42S/S66N/T106N/T262R/W38E/Y61H); experiment: purified HLA class II binding assay, DRB1*0301 (DR3), pH 4.5; conditions: Table XXb, HIV DR 3a motif peptides
T4 construct: endogenous in cells; host or cells: MAT
T4 sequence (P01903 26-254 partner, other chains not shown): as the sequence (P01903 26-254, other chains not shown) above

HLA-A*2402 = HLA-A*2402 (Homo sapiens, UniProt P04439, D101N/D140Y/D185E/E176V/E190D/F33S/G103R/G107R/I119L/I121M/I306V/K335N/L105A/L180Q/L300P/N151K/N90K/Q86E/Q94H/R106L/R138H/R89G/T104I/T345S/V100E/W191G/Y123F); experiment: purified HLA class I binding assay, A*2402
HLA-A*0301 = molecular target: T5, HLA-A*0301 (Homo sapiens, UniProt P04439); experiment: purified HLA class I binding assay, A*0301; conditions: for A*0301 binding information: Table IX
T5 construct: endogenous in cells; host or cells: GM3107

HLA-A*6801 = HLA-A*6801 (Homo sapiens, UniProt P04439, A269V/D185E/E176V/E277Q/E87N/F33Y/G231S/I121M/I166T/I218V/L180W/L300P/L318F/N151K/P208A/P217A/Q86R/R169H/T345S); experiment: purified HLA class I binding assay, A*6801; conditions: for A*6801 binding information: Table IX, unit not given
HLA-A*1101 = HLA-A*1101 (Homo sapiens, UniProt P04439, A114D/D185E/E176A/F33Y/L180Q/S129P/T187R); experiment: purified HLA class I binding assay, A*1101
HLA-A*3101 = HLA-A*3101 (Homo sapiens, UniProt P04439, A270S/D185E/E176V/E277Q/F33T/G231S/G80R/H175R/I121M/I218V/I322F/K168Q/L300P/L318F/M331R/P217A/Q94H/R138Q/T323A/T345S/T97I/V358M); experiment: purified HLA class I binding assay, A*3101; conditions: for A*3101 binding information: Table IX, unit not given
HLA-A*0201 = HLA-A*0201 (Homo sapiens, UniProt P04439, D140Y/D185E/D98H/E176V/E277Q/G131W/G231S/I119V/I121R/I166T/I218V/L300P/L318F/N151K/N90K/P208A/P217A/Q86G/Q94H/R138H/R169H/T345S); experiment: purified HLA class I binding assay, A*0201; conditions: HIV A02 super motif peptides, Table VIII; unit not given
HLA-A*0203 = HLA-A*0203 (Homo sapiens, UniProt P04439, A173T/D140Y/D185E/D98H/E277Q/G131W/G231S/I119V/I121R/I166T/I218V/L180W/L300P/L318F/N151K/N90K/P208A/P217A/Q86G/Q94H/R138H/R169H/T345S); experiment: purified HLA class I binding assay, A*0203; conditions: HIV A02 super motif peptides, Table VIII; unit not given
HLA-A*0206 = HLA-A*0206 (Homo sapiens, UniProt P04439, D140Y/D185E/D98H/E176V/E277Q/F33Y/G131W/G231S/I119V/I121R/I166T/I218V/L300P/L318F/N151K/N90K/P208A/P217A/Q86G/Q94H/R138H/R169H/T345S); experiment: purified HLA class I binding assay, A*0206; conditions: HIV A02 super motif peptides, Table VIII; unit not given
HLA-A*6802 = HLA-A*6802 (Homo sapiens, UniProt P04439, A269V/D140Y/D185E/E176V/E277Q/E87N/F33Y/G231S/I121R/I166T/I218V/L180W/L300P/L318F/N151K/P208A/P217A/Q86R/R138H/R169H/S129P/T345S/V36M); experiment: purified HLA class I binding assay, A*6802; conditions: HIV A02 super motif peptides, Table VIII; unit not given
HLA-A*0202 = HLA-A*0202 (Homo sapiens, UniProt P04439, D140Y/D185E/D98H/E176V/E277Q/G131W/G231S/I119L/I121R/I166T/I218V/L180W/L300P/L318F/N151K/N90K/P208A/P217A/Q67R/Q86G/Q94H/R138H/R169H/T345S); experiment: purified HLA class I binding assay, A*0202; conditions: HIV A02 super motif peptides, Table VIII; unit not given
HLA-DRB1*0701 (DR7) = molecular target: T6, HLA-DRB1*0701 (DR7) (Homo sapiens, UniProt P01903+P01911, A100R/A102G/A103Q/D57E/D86V/E43K/F76Y/K127E/L162R/M171V/P40G/Q125H/Q99D/R33Q/R42Y/R54Q/S133A/S66F/T210M/V115G/Y107V/Y59L/Y89S); experiment: biochemical; type: binding
T6 construct: endogenous in cells; host or cells: Pitout

[1] = HIV A03 supermotif peptides, unit not given
[2] = HIV A03 supermotif peptides, Table IX, unit not given
[3] = HIV A24 motif peptides, purified HLA-A24 molecule, unit not given
[4] = HIV A24 motif peptides, binding value for purified HLA-A24 molecule, A*2401, unit not given
[5] = HIV A03 motif peptides, Table XVI, unit not given
[6] = HIV A03 super motif peptides, binding value, unit not given
[7] = HIV A03 super motif peptides, binding value
[8] = Table IX, HIV A03 super motif peptides, binding value, unit not given

Sequence: PPVVAKEIVASCDKC
- DR5w11 binding information (HLA-DRB1*1101 (DR5w11)): 0.0006
- DR4w4 binding information (HLA-DRB1*0401 (DR4w4); Table XXb, HIV DR 3a motif peptides): 0.0085
- DR2w2β2 binding information (HLA-DRB5*0101 (DR2w2β2)): −0.0021
- DR3 binding information (HLA-DRB1*0301 (DR3)): −0.0130

Sequence: PYNEWTLEL [Peptide 25.0128]
- IC50 (HLA-A*2402): 86 nM

Sequence: PYNLWILEL
- A*2401 (binding information) (HLA-A*2402; HIV A24 supermotif peptides, A*2401, unit not given, so probably a relative binding value): 0.1400

Sequence: QARYLAVER
- A*0301 binding information (HLA-A*0301; [1]): 0.0009
- A*6801 binding information (HLA-A*6801; HIV A03 supermotif peptides): 0.0007
- A*1101 (binding information) (HLA-A*1101; [2]): 0.0003
- A*3101 binding information (HLA-A*3101; HIV A03 supermotif peptides): 0.0320

Sequence: QLLFIIIFRI
- A*0201 binding (HLA-A*0201): 0.0530
- A*0203 binding (HLA-A*0203): 0.0004
- A*0206 binding (HLA-A*0206): 0.0023
- A*6802 binding (HLA-A*6802): 0.0840
- A*0202 binding (HLA-A*0202): 0.0002

Sequence: QMAVFIIINF
- A*2401 (binding information) (HLA-A*2402; [3]): 0.0190
- A*2401 (binding information) (HLA-A*2402; HIV A24 supermotif peptides, Table X, A*2401, unit not given): 0.0190

Sequence: QMVIIQAISPR
- A0301 (binding information) (HLA-A*0301; HIV A03 motif peptides, Table XVI, binding value unit not given): 0.0260
- A*0301 binding information (HLA-A*0301; [1]): 0.0260
- A*6801 binding information (HLA-A*6801; HIV A03 supermotif peptides): 0.0430
- A*1101 (binding information) (HLA-A*1101; [2]): 0.0010
- A*3101 binding information (HLA-A*3101; HIV A03 supermotif peptides): 0.0740

Sequence: RFAVPGLL
- A*2401 (binding information) (HLA-A*2402; [4]): 0.0100

Sequence: TLFCASDAK [1273.06]
- IC50 (HLA-A*6801): 191 nM
- IC50 (HLA-A*3101): 10600 nM

Sequence: TVQCTIIGIK
- A0301 (binding information) (HLA-A*0301; [5]): 0.0021
- A*0301 binding information (HLA-A*0301; [1]): 0.0021
- A*6801 binding information (HLA-A*6801; HIV A03 supermotif peptides): 0.0190
- A*1101 (binding information) (HLA-A*1101; [2]): 0.0460
- A*3101 binding information (HLA-A*3101; HIV A03 supermotif peptides): 0.0042

Sequence: TVQCTIIGIR
- A0301 (binding information) (HLA-A*0301; [5]): 0.0008
- A*0301 binding information (HLA-A*0301; [1]): 0.0008
- A*6801 binding information (HLA-A*6801; HIV A03 supermotif peptides): 0.0120
- A*1101 (binding information) (HLA-A*1101; [2]): 0.0008
- A*1101 (binding information) (HLA-A*1101; Table XVII, HIV A11 motif peptides, binding value for purified HLA-A*1101, unit not given): 0.0008
- A*3101 binding information (HLA-A*3101; HIV A03 supermotif peptides): 0.0880

Sequence: VIFMFSALSEGATPQ
- DR5w11 binding (HLA-DRB1*1101 (DR5w11)): −0.0010
- DR4w4 binding (HLA-DRB1*0401 (DR4w4)): 0.0058
- DR2w2β2 binding (HLA-DRB5*0101 (DR2w2β2)): −0.0014
- DR7 binding (HLA-DRB1*0701 (DR7)): −0.0007

Sequence: VTVYYGVPVWKEATI
- DR5w11 binding (HLA-DRB1*1101 (DR5w11)): 0.0021
- DR4w4 binding (HLA-DRB1*0401 (DR4w4)): 0.0071
- DR2w2β2 binding (HLA-DRB5*0101 (DR2w2β2)): 0.0270
- DR7 binding (HLA-DRB1*0701 (DR7)): 0.0160

Sequence: VWKEATITLF
- A*2401 (binding information) (HLA-A*2402; [4]): 0.2700

Sequence: WMGYELIIPDK
- A*0301 binding information (HLA-A*0301; [6]): 0.0005
- A*6801 binding information (HLA-A*6801; [7]): 0.0003
- A*1101 (binding information) (HLA-A*1101; [8]): 0.0004
- A*1101 (binding information) (HLA-A*1101; Table XVII, HIV A11 motif peptides, binding value A*1101, unit not given): 0.0004
- A*3101 binding information (HLA-A*3101; [7]): 0.0009

Sequence: YLAWVPAIIK
- A0301 binding (HLA-A*0301; HIV A03 motif peptides, Table XVI, column A0301, unit not given): 0.0770
- A*0301 binding information (HLA-A*0301; [6]): 0.0770
- A*6801 binding information (HLA-A*6801; [7]): 4.0000
- A*1101 (binding information) (HLA-A*1101; [8]): 0.0570
- A*1101 (HIV A11 Motif Peptides with Binding Information) (HLA-A*1101; binding value to purified HLA-A*1101 in Table XVII, unit not given): 0.0570
- A*3101 binding information (HLA-A*3101; [7]): 0.0550

Sequence: YWQATWIPE
- A*2401 (binding information) (HLA-A*2402; [3]): 0.0660
- A*2401 (binding information) (HLA-A*2402; HIV A24 supermotif peptides, binding value printed without unit in Table X): 0.0660
